Test results taken from publication PMC12609908.

How the values were obtained:
[1] = target: T1, CutR (Mycobacterium sp. strain JC1) (UniProt D5G1X9); test: EMSA; settings: 50 mM Tris-HCl pH 8.0, 100 mM NaCl, 40% glycerol, 5 mM DTT, 2 mM EDTA, 4 °C 1 h; 10% native PAGE in 0.5x TBE at 4 °C
T1 sequence: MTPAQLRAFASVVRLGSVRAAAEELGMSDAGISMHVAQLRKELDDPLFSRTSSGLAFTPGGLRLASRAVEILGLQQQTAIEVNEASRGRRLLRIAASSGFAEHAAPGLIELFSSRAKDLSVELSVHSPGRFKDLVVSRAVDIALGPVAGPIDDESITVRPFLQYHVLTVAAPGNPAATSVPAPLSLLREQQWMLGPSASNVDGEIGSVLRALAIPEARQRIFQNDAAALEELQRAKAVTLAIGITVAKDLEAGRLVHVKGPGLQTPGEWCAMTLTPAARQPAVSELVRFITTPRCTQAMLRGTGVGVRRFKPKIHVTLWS

[2] = target: CutR, LysR-type transcriptional regulator from Mycobacterium sp. strain JC1 (native protein) (Mycobacterium sp. strain JC1); test: SEC; Superdex G-75 column, 20 mM Tris-HCl pH 7.5, 500 mM NaCl, 5 mM beta-mercaptoethanol; size standards conalbumin, ovalbumin, carbonic anhydrase, ribonuclease A, aprotinin

Row | stoichiometry N [2] | Substance | binding [1]
1 |  | ACCCCGAGTTAAGTGATTCCTTAACTCGCTATTGACGCCATCGCGGCGGCAACGGAAACTAGCCACTTCAGCCACGACGTTGTGAGGATGATCACATGCAA (double strand) [IR1 to CRP motif fragment (101 bp)] | binds
2 | 2 | CutR, LysR-type transcriptional regulator from Mycobacterium sp. strain JC1 (native protein) (natural protein) | 
